Usually Kd stands for the free concentration of one partner at which half of the binding sites on the other are occupied at equilibrium, for simple one-to-one binding.

Our source for the binding result and Kd values is publication PMC5815094, “Interplay between the catabolite repression control protein Crc, Hfq and RNA in Hfq-dependent translational regulation in Pseudomonas aeruginosa”.

Data set [1] has as its target T1, Hfq;Crc (Pseudomonas aeruginosa PAO1;Pseudomonas …, UniProt Q9HUM0;Q51380 1-82;1-259, |). The data set is described as follows: co-IP (anti-Hfq); RNA-dependent Crc capture; ES buffer: 10 mM Tris pH 8.0, 10 mM KCl, 40 mM NaCl, 1 mM MgCl2; MST + 0.05% Tween-20, room temperature; EMSA + 25 ng tRNA per 10 ul, 37 C 15 min (Fig 6D); NMR. The following applies: protein: recombinant;recombinant; tags: none stated;His6-tag (N-terminal) removed with HRV14-3C; chain copies: 6;1. For orientation: In EMSA bound probe runs differently from free probe, usually more slowly.

Data set [2] concerns the target T1, Hfq;Crc. In words: MST; 30 nM labelled Hfq6, RNA titrated, 360 nM Crc; ES buffer: 10 mM Tris pH 8.0, 10 mM KCl, 40 mM NaCl, 1 mM MgCl2; MST + 0.05% Tween-20, room temperature; EMSA + 25 ng tRNA per 10 ul, 37 C 15 min (Fig 6D); NMR. The following applies: protein: recombinant;recombinant; tags: none stated;His6-tag (N-terminal) removed with HRV14-3C; chain copies: 6;1; label: 5'-32P (EMSA); unlabelled (MST).

The next data set addresses Hfq (Pseudomonas aeruginosa PAO1, UniProt Q9HUM0 1-82). In words: MST; 30 nM labelled Hfq6, no Crc; ES buffer: 10 mM Tris pH 8.0, 10 mM KCl, 40 mM NaCl, 1 mM MgCl2; MST + 0.05% Tween-20, room temperature; EMSA + 25 ng tRNA per 10 ul, 37 C 15 min (Fig 6D); NMR. The following applies: protein: recombinant; tags: none stated; chain copies: 6; label: 5'-32P (EMSA); unlabelled (MST).

As to AAAAAAAAAAAAAAAAAAAAAAAAAAA (ssRNA) [poly(A)27], the binding result with Hfq;Crc [1] is on record as “binds”. Turning to AAAAAUAACAACAAGAGG (ssRNA) [amiE6ARN], the Kd with Hfq;Crc [2] was 33.9 ± 1.7 nM; with Hfq, 43.2 ± 2.3 nM.
